This note sets out measurements from patent US20130224829A1, “NOVEL LIPOXYGENASE DERIVED FROM LEMNA PAUCICOSTATA” (priority 2010, published 2013).

This series in a line: Lipoxygenase activity of enzyme solutions on α-linolenic acid, reverse-phase HPLC of linolenic acid hydroperoxide. In kind it is biochemical. Conditions: for activity of position 9-product specific lypoxygenase compared with r9-LOX1 (amount of lynolenic acid-9-hydroperoxide): HPLC comparison, FIG. 6; for position 9 product specific lypoxygenase activity (peak of linolenic acid-9-hydroxyperoxide, 21.1 min): α-linolenic acid substrate, pH7.0, 30 minutes reaction, E. coli-expressed enzyme solution. Here is the method:
The activity of lypoxygenase in the enzyme solutions of SHLpLOX, 441LpLOX1, 441LpLOX2 and r9-LpLOX1 which was used as a control, was determined. 25 μl of 5 mM α-lynolenic acid solution (including 0.05% Tween80), 10 μl of 0.2M phosphate Na Buffer (pH7.0), 5 μl of distilled water were added to 1.5 ml of tube, and then 10 μl of the enzyme solution was added to the tube, and allowed to react for 30 minutes. After the reaction was over, reactant was subjected to HPLC (reverse phase; Column: Capsule pack C-18 UG120 (4.6×250 mm, Shiseido), Column temperature: 40° C., Mobile phase: 50% acetnitril (0.02%TFA), Flow rate 1 ml/min, Detection: 210 nm) so as to detect the site specificity of produced lynolenic acid hydroperoxide and the production amount.
The amount of lynolenic acid-9-hydroperoxide form was compared based on the results of HPLC.

B1: 441LpLOX1: Position 9 product specific lipoxygenase 1 obtained from Lemna paucicostata 441 strain (SEQ ID NO: 4) (protein, listed as Lemna paucicostata)
chain: MDAFIHKVTDVFTHKEENKVAKISGTVVIVKSNVVGFNDFVDSFLDGLHELVGSGITFQLISATVGDPKNGNKGKLGKPAQLERWITTGTFLAAGDSGFKLTFEWDEQLGFPGAVIVKNNHHGEFFLKSFTLDGVPGKKTRIHFDCNSWVYPYSTYNYDRVFFANDTFLPGNMPEPLKAYRAAELANLRGDGVAPRELKEGDRIYAYDVYNDLGDPDSGEELVRPILGGSKEYPYPRRARTGRKMTKTDPKSETRLPLLFSLNVYVPRDERFGHLKMSDFLGYSLKALAQGLVPVLNEAADLTPFEFDTFQDVLNLYEGGIDLPDSPALENVRKQIPFALIKELFRSDGENLFRLPTPAVIKADKFAWRTDEEFGREMLAGVNPVCIRLLTKFPPVSSLDPNTYGDHNSTMTADQLEKNMNGLSVEEALNKKKLFILDHHDSLMPYLERINTFNKIYASRTVLLLQDDGTLKPLAIELSLPIKGQKGAVSKVYTPAEHGVEAAVWQLAKAFAAVNDSGVHQLISHWLNTHATIEPFAIALNRQLSVVHPIYKLLHPHFRDTMNINAFARQILINAGGILEMTVFPGKYALEMSSVVYKGWKLIDHALPVDLLNRGVAENDPSAPGKLRLLIEDYPYAVDGLAVWSAIEIWVKEYCAIYYPSDKILQDDTELQAWWKEVREVGHGDKKDETWWPTMKTVAELTQTCCTIIWVASALHAAVNFGQYPYAGYLPNRPTVSRRFMPEPGTPEYEELKTDPDRAFLKTITSQLQTTIGVSLIEILSRHSSDEVYLGQRISAEWTTDEKALAAFKAFGERLITIENQIIEMNHEPKLKNRNGPVKLPYTLLYPNTSDYTRVGGLTGRGIPNSVSI
For B1, the “activity of position 9-product specific lypoxygenase compared with r9-LOX1 (amount of lynolenic acid-9-hydroperoxide)” value is “far higher activity” and the “position 9 product specific lypoxygenase activity (peak of linolenic acid-9-hydroxyperoxide, 21.1 min)” value is “have position 9 product specific lypoxygenase activity”.

B2: SHLpLOX: Position 9 product specific lipoxygenase obtained from Lemna paucicostata SH strain (SEQ ID NO: 2), expressed in Escherichia coli (protein, listed as Lemna paucicostata)
chain: MAGFLQKVTDNLLHKAAKISGTVVLVKSNVVGFNDFADSFLDGLHELLGSGITFQLVSATVGDPKNGNKGKLGKPALLEKWITTGTFLAAGDSGFKVNFEWDEQLGVPGAVIVKNNHHGEFFLKSLTLDGAPGPRSRIHFDCNSWVYPYSTYNYDRVFFANDTYLPGEMPEPLKAYRAAELVNLRGDGVTRELKEGDRIYAYDLYNDLGDPDSGKELARPILGGSEEYPYPRRARTGRKLTKTDPKSEQRLPLVFSLNVYVPRDERFGHLKMSDFLAYSLKALAQGLVPALDAATDITPFEFDTFQDVLNLYEGGINLPTTPALENFKKQIPFPLVKELFRSDGENLFRLPTPSVIKADKFAWRTDEEFGREMLAGVNPVCIRLLKKFPPVSSLDPSIYRNQNSTMIADQLEKNMNGLSVEEALKQKKLFILDHHDSLMPYLERINTFNKIYASRTVLLLQDDGTLKPLAIELSLPVKGEKGAVSKVYTPAEHGVEGAVWQLAKAYVAVNDSGVHQLISHWLNTHATIEPFSIALNRQLSVVHPIYKLLHPHFRDTMNINAFARQILINAGGILEMTVFPGKYAMEMSSVVYKGWKLTDQALPVDLLNRGVAEKDPSSGELRLLIEDYPYAVDGLDVWNAIEEWVKEYCAIYYPSDKTLQDDTEVQAWWKEVREVGHGDKKDETWWPAMETVAELTQTCSTIIWVASALHAAVNFAQYPYAGYLPNRPTISRRFMPEPGTPEYEELETDPDRAFLKTITSQLQTLIGVSLIEILSRHSSDEIYLGQRVSAEWTSDAKALAAFKAFGEKLITIENKIIEMNVDSSLKNRNGPVKVPYTFLYPNTTDYTRVGGLTGRGIPNSISI
Regarding B2, the “activity of position 9-product specific lypoxygenase compared with r9-LOX1 (amount of lynolenic acid-9-hydroperoxide)” value is reported as “far higher activity” and the “position 9 product specific lypoxygenase activity (peak of linolenic acid-9-hydroxyperoxide, 21.1 min)” value is “have position 9 product specific lypoxygenase activity”.

B3: 441LpLOX2: Position 9 product specific lipoxygenase 2 obtained from Lemna paucicostata 441 strain (SEQ ID NO: 6) (protein, listed as Lemna paucicostata)
chain: MADFLQKVTNNLLHKAAKISGTVVLVKSNVIGFNDFGDSFLDGLHELLGSGITFQLVSATVGDPNNGNKGKLGKPALLEKWITTGTFLVAGDSGFKVNFEWDEQLGIPGAVIVKNNHHGEFFLKSFTLDGVPGPRSRIHFDCNSWVYPYSTYNYDRVFFANDTYLPGETPEPLKAYRAAELVNLRGDGVTRELKEGDRIYAYDYYNDLGDPDSGKELARPILGGSKEYPYPRRARTGRKLTKTDPKSEQRLPLVFSLNVYVPRDERFGHLKMSDFLAYSLKALAQGLVPALDAAADITPFEFDTFQDVLNLYEGGINLPTTPASENFKKQIPFPLVKELFRSDGENVFRLPTPSVIKADKFAWRTDEEFGREMLAGVNPVCIRLLTKFPPVSSLDPSIYGNQNSTMIADQLEKNMNGLSVEEALKQKKLFILDHHDSLMPYLERINTFNKIYASRTVLLLRDDGTLKPLAIELSLPIKGEKGAVSKVYTPAEHGVEGAVWQLAKAYVAVNDSGVHQLISHWLNTHATIEPFSIALNRQLSVVHPIYKLLHPHFRDTMNINAFARQILINAGGILEMTVFPGKYAMEMSSVVYKGWKLTDQALPVDLLNRGVAEKDPSSGELRLLIEDYPYAVDGLDVWNAIEEWVKEYCAIYYPSDKTLLDDTELQAWWKEVREVGHGDKKDETWWPAMETVAELTQTCCTIIWVASALHAAVNFAQYPYAGYLPNRPTISRRFMPEPGTPEYEELETDPDRAFLKTITSQLQTLIGVSLIEILSRHSSDEIYLGQRVSAEWTSDAKALAAFKAFGEKLITIENKIIQMNVDSSLKNRNGPVKVPYTFLYPNTTDYTRVGGLTGRGIPNSISI
Consider B3, for which the “position 9 product specific lypoxygenase activity (peak of linolenic acid-9-hydroxyperoxide, 21.1 min)” value is “have position 9 product specific lypoxygenase activity”.
